For assay [1], the target named is T1, Borealin C-terminal domain (207-280) (human, UniProt Q53HL2 207-280, biotinylated on the Avi-tag (co-expression with BirA)).
T1 construct: range 207-280; The construct carries His- and Avi-tags; Expressed in E. coli; Immobilised via neutravidin (ELISA) or His-tag/NTA chip (SPR); also called Bor-C
T1 sequence (looked up): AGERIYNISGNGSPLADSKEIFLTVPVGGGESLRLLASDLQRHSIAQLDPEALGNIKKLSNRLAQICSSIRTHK
Kind of assay: SPR, His-tagged target on NTA chip, 2-fold dilutions of the Fab injected, 1:1 Langmuir fit [panel B, top]. Here is the method: (§1) The targets were immobilized onto a nitrilotriacetic acid (NTA) sensor chip via His-tag. 2-fold serial dilutions of the Fab were injected following ligand immobilization on the sensor chip. For each kinetic assay at least five dilutions of the Fab were tested. The data were fitted using 1:1 Langmuir Model to obtain the on-rate, off-rate and the affinity (KD) of the Fab-target interaction.
(In SPR one partner is held on a chip, and binding of the other changes the refractive index at the surface.)

For the next assay, the target named is T2, Sur-N.
T2 construct: Specificity lane in the Western blots; also called Survivin-N (N-term); Sur N: 1-120
Kind of assay: Western blot of recombinant CPC domains, Fab as primary reagent, anti-human F(ab')2 IgG-HRP [panel B]. The method, then: (§2) Recombinant CPC targets Survivin-N(N-term), Borealin-N(N-term), Borealin-C(C-term) and INCENP-N(N-term) domains were run on SDS-PAGE and transferred into PVDF membrane. […] The assay was developed by using a secondary anti-human-F(ab′)2 IgG-HRP reagent
(§3) Membranes were stained with Ponceau S dye to verify correct transfer of the proteins, were briefly washed with ddH2O and blocked with 4% skimmed milk in TBS-T containing 0.05% Tween20 for 30 min. at RT on the shaker. Blocking solution was discarded and membranes were incubated with Borealin Fabs as primary detection reagents at concentration 5-10 µg/ml, in blocking buffer at 4 C O/N on the shaker. Membranes were washed 3 times with TBS-T and incubated with secondary anti-human FAB′2 specific HRP-conjugated IgG (diluted 1:10,000 in blocking buffer) for 45 minutes at RT, shaking. Membranes were washed again 3× with TBS-T, developed with ECL chemiluminescent substrate and visualized with the Biorad imaging instrument (FIG. 10).
(In general: In western blotting, separated proteins are transferred to a membrane and probed.)

Assay [2] deals with T3, Borealin N-terminal domain (20-88) (human, UniProt Q53HL2 20-88, biotinylated on the Avi-tag (co-expression with BirA)).
T3 construct: range 20-88; The construct carries His- and Avi-tags; Expressed in E. coli; Immobilised via neutravidin (ELISA) or His-tag/NTA chip (SPR); also called Bor-N
T3 sequence (looked up): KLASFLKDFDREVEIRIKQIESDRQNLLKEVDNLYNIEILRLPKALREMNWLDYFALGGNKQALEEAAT
The description is as above. Here is the method: as §2, §3

The target in the next assay is T4, INC-N.
T4 construct: Specificity lane in the Western blots; also called INCENP-N (N-term); Inc: 1-58
T4 chain: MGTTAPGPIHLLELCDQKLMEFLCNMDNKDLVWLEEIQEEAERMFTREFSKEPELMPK
The assay is described as above. The method, then: as §2, §3

Assay [3] deals with T3, Borealin N-terminal domain (20-88). Kind of assay: single-point Fab ELISA, 50 nM biotinylated target on neutravidin, 200 nM Fab, protein L-HRP [panel A]. The method, then:
(§4) To rapidly reconfirm the binding and specificity of the obtained Fabs after reformatting into the expression vectors single-point Fab ELISA was performed (FIG. 2). Briefly, 50 nM Avi-tagged targets were immobilized on the prepared NAV-coated and blocked with 0.5% BSA in PBS 96-well ELISA plates. The target coated plates were washed with appropriate buffer (TBST or PBST) and were incubated with 200 nM Fab for 20 minutes and then washed. The washed plates were incubated with protein L conjugated with HRP (1:5000 diluted in TBST) for 30 minutes. Plates were washed and the reaction was developed using the TMB chromogenic substrate (Thermofisher) and subsequently quenched with 1M HCl. Absorbance was read at 450 nm on Epoch plate reader.

Assay [4] concerns the target T1, Borealin C-terminal domain (207-280). Kind of assay: SPR, His-tagged target on NTA chip, 2-fold dilutions of the Fab injected, 1:1 Langmuir fit [panel B, middle]. The method, then: as §1
Assay [5] shares this target. Kind of assay: SPR, His-tagged target on NTA chip, 2-fold dilutions of the Fab injected, 1:1 Langmuir fit [panel B, bottom]. Here is the method: as §1
The target in assay [6] is T3, Borealin N-terminal domain (20-88). Kind of assay: single-point Fab ELISA, 50 nM biotinylated target on neutravidin, protein L-HRP [panel A]. The method, then:
as §4
Background: In an ELISA, binding on a coated surface is turned into a signal by an enzyme label.

Assay [7] has the same target. Kind of assay: SPR, His-tagged target on NTA chip, 2-fold dilutions of the Fab injected, 1:1 Langmuir fit [panel A]. The method, then:
as §1

The target of assay [8] is T1, Borealin C-terminal domain (207-280). Kind of assay: Western blot of recombinant CPC domains, Fab as primary reagent, anti-human F(ab')2 IgG-HRP [panel A]. Here is the method:
as §2, §3

Assay [9] has the same target. Kind of assay: single-point Fab ELISA, 50 nM biotinylated target on neutravidin, protein L-HRP [panel B]. Here is the method: as §4

T2 sequence (chain, as listed by the source limits assumed): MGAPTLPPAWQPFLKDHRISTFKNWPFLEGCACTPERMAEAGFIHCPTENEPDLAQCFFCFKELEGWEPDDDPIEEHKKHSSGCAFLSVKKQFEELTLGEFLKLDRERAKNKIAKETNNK

B1: BOR-C-56 (Fab, V domains shown)
VH: EVQLVESGGGLVQPGGSLRLSCAASGFNISSSSIHWVRQAPGKGLEWVAYISSYSGSTYYADSVKGRFTISADTSKNTAYLQMNSLRAEDTAVYYCARYYHSPLWYYSYSGMDYWGQGTLVTVSS
VL: DIQMTQSPSSLSASVGDRVTITCRASQSVSSAVAWYQQKPGKAPKLLIYSASSLYSGVPSRFSGSRSGTDFTLTISSLQPEDFATYYCQQDYSWSPITFGQGTKVEIKR
notes: also called BOR-C-56 Fab
On to B1, for which, in assay [1], the Kd was 11.6 nM. Further, the binding result (with Sur-N; in assay [2]; with INC-N) was “no binding (tested: 5-10 ug/ml (the text prints 'lg/ml'))” throughout.

B2: BOR-N-51 (Fab, V domains shown)
VH: EVQLVESGGGLVQPGGSLRLSCAASGFNVYSYSIHWVRQAPGKGLEWVASIYSSYSYTSYADSVKGRFTISADTSKNTAYLQMNSLRAEDTAVYYCARKYHFKPTYWGAMDYWGQGTLVTVSS
VL: DIQMTQSPSSLSASVGDRVTITCRASQSVSSAVAWYQQKPGKAPKLLIYSASSLYSGVPSRFSGSRSGTDFTLTISSLQPEDFATYYCQQSSLYYPLTFGQGTKVEIKR
notes: also called BOR-N-51 Fab
For the molecule B2, in [3], the binding result is recorded as “binds”.

B3: BOR-C-61 (Fab, V domains shown)
VH: EVQLVESGGGLVQPGGSLRLSCAASGFNFYSSYIHWVRQAPGKGLEWVASISSSSGSTSYADSVKGRFTISADTSKNTAYLQMNSLRAEDTAVYYCARRSGGGLDYWGQGTLVTVSS
VL: DIQMTQSPSSLSASVGDRVTITCRASQSVSSAVAWYQQKPGKAPKLLIYSASSLYSGVPSRFSGSRSGTDFTLTISSLQPEDFATYYCQQSSSSLITFGQGTKVEIKR
notes: also called BOR-C-61 Fab
B3 came in with a Kd in [4] of 8.5 nM.

B4: BOR-C-64 (Fab, V domains shown)
VH: EVQLVESGGGLVQPGGSLRLSCAASGFNVYYSSIHWVRQAPGKGLEWVASISSYYGSTYYADSVKGRFTISADTSKNTAYLQMNSLRAEDTAVYYCARWKWVAMDYWGQGTLVTVSS
VL: DIQMTQSPSSLSASVGDRVTITCRASQSVSSAVAWYQQKPGKAPKLLIYSASSLYSGVPSRFSGSRSGTDFTLTISSLQPEDFATYYCQQDLFMPITFGQGTKVEIKR
notes: also called BOR-C-64 Fab
In turn, B4 registered a Kd in [5] of 0.6 nM.

B5: BOR-N-49 (Fab, V domains shown)
VH: EVQLVESGGGLVQPGGSLRLSCAASGFNVSSYSIHWVRQAPGKGLEWVASIYSSSSSTYYADSVKGRFTISADTSKNTAYLQMNSLRAEDTAVYYCARRYYHYRYPLFWGWYGMDYWGQGTLVTVSS
VL: DIQMTQSPSSLSASVGDRVTITCRASQSVSSAVAWYQQKPGKAPKLLIYSASSLYSGVPSRFSGSRSGTDFTLTISSLQPEDFATYYCQQSFWWPITFGQGTKVEIKR
notes: also called BOR-N-49 Fab
With B5, the binding result in assay [3] is “binds”.

B6: BOR-N-65 (Fab, V domains shown)
VH: EVQLVESGGGLVQPGGSLRLSCAASGFNFSSSSIHWVRQAPGKGLEWVASISSSSGSTSYADSVKGRFTISADTSKNTAYLQMNSLRAEDTAVYYCARESSQTKKYWYWVVQWYTAMDYWGQGTLVTVSS
VL: DIQMTQSPSSLSASVGDRVTITCRASQSVSSAVAWYQQKPGKAPKLLIYSASSLYSGVPSRFSGSRSGTDFTLTISSLQPEDFATYYCQQYSQWLITFGQGTKVEIKR
notes: also called BOR-N-65 Fab
Regarding B6, in assay [6], the binding result is recorded as “no binding (tested: 200 nM)”.

B7: BOR-N-50 (Fab, V domains shown)
VH: EVQLVESGGGLVQPGGSLRLSCAASGFNVYSYSIHWVRQAPGKGLEWVASIYSYSGYTYYADSVKGRFTISADTSKNTAYLQMNSLRAEDTAVYYCARSTYPHVYLYFGLDYWGQGTLVTVSS
VL: DIQMTQSPSSLSASVGDRVTITCRASQSVSSAVAWYQQKPGKAPKLLIYSASSLYSGVPSRFSGSRSGTDFTLTISSLQPEDFATYYCQQSYYWPVTFGQGTKVEIKR
notes: also called BOR-N-50 Fab
As for B7, the binding result in assay [3] is “binds”.

B8: BOR-N-48 (Fab, V domains shown)
VH: EVQLVESGGGLVQPGGSLRLSCAASGFNFSYSSIHWVRQAPGKGLEWVASIYPYSGSTYYADSVKGRFTISADTSKNTAYLQMNSLRAEDTAVYYCARKQVSGWWWYYGFDYWGQGTLVTVSS
VL: DIQMTQSPSSLSASVGDRVTITCRASQSVSSAVAWYQQKPGKAPKLLIYSASSLYSGVPSRFSGSRSGTDFTLTISSLQPEDFATYYCQQSYWWPITFGQGTKVEIKR
notes: also called BOR-N-48 Fab
As for B8, the Kd in [7] came to 0.4 nM. Moreover, the binding result in [8] is recorded as “no binding (tested: 5-10 ug/ml (the text prints 'lg/ml'))”.

B9: BOR-C-58 (Fab, V domains shown)
VH: EVQLVESGGGLVQPGGSLRLSCAASGFNVSSYSIHWVRQAPGKGLEWVASISPYYGYTSYADSVKGRFTISADTSKNTAYLQMNSLRAEDTAVYYCARHYYYGFSWFSSGYAMDYWGQGTLVTVSS
VL: DIQMTQSPSSLSASVGDRVTITCRASQSVSSAVAWYQQKPGKAPKLLIYSASSLYSGVPSRFSGSRSGTDFTLTISSLQPEDFATYYCQQGSSSPITFGQGTKVEIKR
notes: also called BOR-C-58 Fab
As for B9, the binding result in assay [9] is “no binding (tested: 200 nM)”.

A word on the Kd: it is the concentration at which binding is half-saturated. Lower therefore signals a tighter complex.

For the origin of these results see patent US20250127814A1 (UNIVERSITY OF CHICAGO, published 2025).
